Data on 30 sequences can be found in the nanobody polyreactivity screen of Harvey et al. (2022).

This data set is described as follows: yeast display, Sf9 membrane polyspecificity reagent, FACS + sequencing; frameworks hold sequencing errors. Put shortly: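 Galactose induction of a Saccharomyces cerevisiae BJ5465 synthetic nanobody display library ran 36–48 hours. The cells were then stained for 1 hour at 4 °C with 10% biotinylated, detergent-solubilized Sf9 membrane reagent, pulled down on streptavidin microbeads and FACS-sorted into low and high (top ~1%) gates on expression and reagent-binding fluorescence. Labels for polyreactivity follow the gate of origin.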
As for “QVQLVESGGGLVQAGGSLRLSCAASGRILDAYTMGWYRQAPGKERQLVAAISASGVSTYYADSVKGRFTISRDNAKNTVYLQMNSLKPEDTAVYYCAKDYYQQTGFLEYDYWGHGTQVTVSS”, the “polyreactivity (PSR sort gate)” value is “low polyreactivity”.

In the case of “QVQLVESGGGLVQAGGSLRLSCAASGRILDGYAMGWYRQAPGKERELVAAISSRGGRTYYADSVKGRFTISRDNAKNTVYLQMNSLKPEDTAVYYCAADFSKSRRPIRFYYWGQGTQVTVSS”, the “polyreactivity (PSR sort gate)” value was “high polyreactivity”.

Turning to “QVQLVESGGGLVQAGGSLRLSCAASGRILEGYAMGWYRQAPGKERELVAAISFSTTTTYYADSVKGRFTISRDNAKNTVYLQMNSLKPEDTAVYYCAADSQQSDYDYWGQGTQVTVSS”, the “polyreactivity (PSR sort gate)” value is reported as “high polyreactivity”.

Consider “QVQLVESGGGLVQAGGSLRLSCAASGRILFWYAMGWYRQAPGKERELVAAISSSGGSTYYADSVKGRFTISRDNAKNTFYLLMNSLKPEDTAVYYCAADGVVDYGYWFVVEYEYWGQGTQVTVSS”, for which the “polyreactivity (PSR sort gate)” value was “high polyreactivity”.

Regarding “QVQLVESGGGLVQAGGSLRLSCAASGRILGFYAMGWYRQAPGKERELVDSINWSGTRTYYADSVKARFTISRDNAKNTVYLQLNSLKPEDTAVYYCAAERYPYGVTYSKLDYWGQGTQVTVSS”, the “polyreactivity (PSR sort gate)” value was “high polyreactivity”.

For the sequence “QVQLVESGGGLVQAGGSLRLSCAASGRILGPNAMGWYRQAPGKERELVAAINSGGSTNYADSVKGRFTISRDNAKNTVYLQMNSLKPEDTAVSYCAPDKARVAGYGVEYDYWGQGTQVTVSS”, the “polyreactivity (PSR sort gate)” value is listed as “low polyreactivity”.

In the case of “QVQLVESGGGLVQAGGSLRLSCAASGRILGRNAMGWYRQAPGKEREFVAGISYSGTSTYYADSVKGRFTISRDNAKNTVYLQMNSLKPEDTAVYYCAVYTGRQPRVSGKYYYWGQGTQVTVSS”, the “polyreactivity (PSR sort gate)” value was “high polyreactivity”.

In the case of “QVQLVESGGGLVQAGGSLRLSCAASGRILGRNAMGWYRQAPGKERELVAAISSGGNTYYADSVKGRFTISRDNAKNTVYLQMNSLKPEDTAVYYCNTGTYKDWGQGTQVTVSS”, the “polyreactivity (PSR sort gate)” value is reported as “low polyreactivity”.

On to “QVQLVESGGGLVQAGGSLRLSCAASGRILGRYAMGWYRQEPGKERELVASIRGGGSTNYADSVKGRFTISRDNAKNTVYLQMNSLKPEDTAVYYCAKDYDVRVYEYNYWGQGTQVTVSS”, for which the “polyreactivity (PSR sort gate)” value was “low polyreactivity”.

Regarding “QVQLVESGGGLVQAGGSLRLSCAASGRILGYYSMGWYRQAPGKERELVAGITSGGSTYYADSVKGRFTISRDNAKNTVYLQMNSLKPEDTAVYYCATVHGVYQRRYYFWGQGTQVTVSS”, the “polyreactivity (PSR sort gate)” value is “high polyreactivity”.

As to “QVQLVESGGGLVQAGGSLRLSCAASGRILIRKAMGWYRQAPGKERELVAAINRGGGSTYYADSVKGRITISRDNAKNTVYLQMISLNPDDTAVYYCAADRKAGYSRVDGDYWGQGTQVTVSS”, the “polyreactivity (PSR sort gate)” value was “low polyreactivity”.

For “QVQLVESGGGLVQAGGSLRLSCAASGRILKWYAMGGYRQAPGKVRELVAAISARGGSTFYADSVKGRFTSSRDNAKNTVYLPMNSLKPEDTAVYYCAKRWPYTMYYWGQGTQVTVSS”, the “polyreactivity (PSR sort gate)” value is “high polyreactivity”.

As to “QVQLVESGGGLVQAGGSLRLSCAASGRILKYNAMGWYRQAPGKERELVAAISYRGGSTYYADSVKGRFTISRDNAKNTVYLQMNSLKPEDTAVYYCNAGGGILNGPLFDYWGQGTQVTVSS”, the “polyreactivity (PSR sort gate)” value is listed as “low polyreactivity”.

With “QVQLVESGGGLVQAGGSLRLSCAASGRILLRYAMGWYRQAPGQERELVAAISQRGGRTYYADSVKGRFTISRDNAKNTVNLQMNSLKPEDTAVYYCAAASQQRSPRYGYWGQGTQVTVSS”, the “polyreactivity (PSR sort gate)” value is recorded as “high polyreactivity”.

As for “QVQLVESGGGLVQAGGSLRLSCAASGRILLYKAMGWYRQAPGKERELVAAISRSGGSTYYADSVKGRFTISRDNAKNTVYLQMNSLKPEDTAVYYCAAQHGYPRYYFWGQGTQVTVSS”, the “polyreactivity (PSR sort gate)” value was “high polyreactivity”.

In the case of “QVQLVESGGGLVQAGGSLRLSCAASGRILLYNAMGWYRQAPGKERELVAAISRSGGYTYYADSVNWRFTISRDNAKNTVYLQMNSLKPEDTAVYYCAAQHGYPRYYYWGQGTQVTVSS”, the “polyreactivity (PSR sort gate)” value was “high polyreactivity”.

“QVQLVESGGGLVQAGGSLRLSCAASGRILPGYAMGWYRQAPGKERELVAAIRGNGDSTYYADSVKGRFTISRDNAKNTVYLQMNSLKPEDTAVYFCAARRVSTIARDSYRGRKYGYWGQGTQVTVSS”: the “polyreactivity (PSR sort gate)” value is “low polyreactivity”.

For the sequence “QVQLVESGGGLVQAGGSLRLSCAASGRILPYNVMGWYRQAPGKEWEFVAAITGSGGDTYYADSVKGRFTISRDTAKNTVYLQMNSLKPEDTAVYYCAAAPYIGGSFGQTPGSGYWGQGTQVTVSS”, the “polyreactivity (PSR sort gate)” value was “low polyreactivity”.

For “QVQLVESGGGLVQAGGSLRLSCAASGRILRPYAMGWYRQAPGKERELDAGITVRGGTTYYADSVKGRFTISRDNAKNTVYLQMNILKPEDTAVYYCAATDIHYGPSYIPYWYGYCGQGTQVTVSS”, the “polyreactivity (PSR sort gate)” value is “high polyreactivity”.

With “QVQLVESGGGLVQAGGSLRLSCAASGRILRYYAMGWYRQAPGKERELVASITSGGSTYYADSVKGRFTISRDNAKNTVSLQMNSLKPEDTAVYYCAARNSYRVDLSYYAYDYWGQGTQVTVSS”, the “polyreactivity (PSR sort gate)” value is “high polyreactivity”.

As to “QVQLVESGGGLVQAGGSLRLSCAASGRILSSNAMGWYRQAPRKERELVAAISWSGGSTYYADSVKGRFTISRDNAKNTVYFQMNSLKPEDTAVYYCAAPFTTTFDYWGKGTQVTVSS”, the “polyreactivity (PSR sort gate)” value is listed as “low polyreactivity”.

For the sequence “QVQLVESGGGLVQAGGSLRLSCAASGRILSVYAMGWYRQAPGKERELVAAIDYSGGSTNYADSVKGRFTISRDNAKNTVYLQMNSLKPEDTAVYYCNREGGAIAWRYLLEYLYSWGQGTQVTVSS”, the “polyreactivity (PSR sort gate)” value is given as “low polyreactivity”.

Take “QVQLVESGGGLVQAGGSLRLSCAASGRILSVYAMGWYRQAPGKERELVAAIEYSGGSTNYADSVKVRFTISRDTSKHTVYLLMNSLLPEDTAVYYCNGEGGAIAWRYLLEYLYSWGQGTQVTVSS”: the “polyreactivity (PSR sort gate)” value is listed as “low polyreactivity”.

For the sequence “QVQLVESGGGLVQAGGSLRLSCAASGRILVLNAMGWYRQAPGKERELVADITSGGSTYYADSVKGRFTISRDNAKNTVYLQMNSLKPEDTAVYYCAADLPYSLDYRSEDDYWGQGTQVTVSS”, the “polyreactivity (PSR sort gate)” value is given as “low polyreactivity”.

For the sequence “QVQLVESGGGLVQAGGSLRLSCAASGRILVPYAMGWYRQAPGKERELVDAISSGGSTKYADSVKGRFTISRDNAKNTVYLQMNSLKPEDTAVYYCASRIGSGSYPYPRYDYWGQGTQVTVSS”, the “polyreactivity (PSR sort gate)” value is recorded as “high polyreactivity”.

With “QVQLVESGGGLVQAGGSLRLSCAASGRILVQNDMGWYRQEPGKERELVAAIRSDGSTSYADSVKGRFTISRDNAKNTVYLQMNSLKPEDTAFYYCAARIDWTGGEYDYWGQGTQVTVSS”, the “polyreactivity (PSR sort gate)” value is reported as “low polyreactivity”.

“QVQLVESGGGLVQAGGSLRLSCAASGRILVYNTMGWSRQAPGKERELVAGIRRGGSTDYADSVKGRFTISRDNAKNTVYLQMNSLNAEDTAVYYCNARYSTGYTKLGYWGQGTQVTVSS”: the “polyreactivity (PSR sort gate)” value is reported as “low polyreactivity”.

On to “QVQLVESGGGLVQAGGSLRLSCAASGRILVYYAMGWYRQAPGKERELVAAIRSSGSSTYYSDSVKGRFTISRDNAKNTVYLQMNSLKPEDTAVYYCAAYYYIGGKYGSQVYEYDYWGQGTQVTVSS”, for which the “polyreactivity (PSR sort gate)” value is “low polyreactivity”.

For the sequence “QVQLVESGGGLVQAGGSLRLSCAASGRILWGYAMGWYRQAPGKERELVAAITWSTGTTSYADSVKGRFTISRDNAKNTVYLQMNSLKPEDTAVYYCARRQWRTQLVYGSRRDYWGQGTQVTVSS”, the “polyreactivity (PSR sort gate)” value is “low polyreactivity”.

For “QVQLVESGGGLVQAGGSLRLSCAASGRILWNAMGWYRQAPGKERELVAGITYSGGSTYYADSVKGRFTISRDNAKNTVYLQMNSLKPEDTAVYYCNAGVGARESDYWGQGTQVTVSS”, the “polyreactivity (PSR sort gate)” value is on record as “low polyreactivity”.
